From the DeepSol protein solubility set

Assay: soluble on expression in E. coli; label from the status in PepcDB or PDB records

Q: Which “soluble on expression in E. coli” value does the source give for “MATTVQLSDQSLRQLETLAIHTAHLIQPHGLVVVLQEPDLTISQISANCTGILGRSPEDLLGRTLGEVFDSFQIDPIQSRLTAGQISSLNPSKLWARVMGDDFVIFDGVFHRNSDGLLVCELEPAYTSDNLPFLGFYHMANAALNRLRQQANLRDFYDVIVEEVRRMTGFDRVMLYRFDENNHGDVIAEDKRDDMEPYLGLHYPESDIPQPARRLFIHNPIRVIPDVYGVAVPLTPAVNPSTNRAVDLTESILRSAYHCHLTYLKNMGVGASLTISLIKDGHLWGLIACHHQTPKVIPFELRKACEFFGRVVFSNISAQEDTETFDYRVQLAEHEAVLLDKMTTAADFVEGLTNHPDRLLGLTGSQGAAICFGEKLILVGETPDEKAVQYLLQWLENREVQDVFFTSSLSQIYPDAVNFKSVASGLLAIPIARHNFLLWFRPEVLQTVNWGGDPNHAYEATQEDGKIELHPRQSFDLWKEIVRLQSLPWQSVEIQSALALKKAIVNLILRQAEEHHHHHH” here?
A: soluble

Q: Which “soluble on expression in E. coli” value does the source give for “MATYYSNDFRAGLKIMLDGEPYAVEASEFVKPGKGQAFARVKLRRLLTGTRVEKTFKSTDSAEGADVVDMNLTYLYNDGEFWHFMNNETFEQLSADAKAIGDNAKWLLDQAECIVTLWNGQPISVTPPNFVELEIVDTDPGLKGDTAGTGGKPATLSTGAVVKVPLFVQIGEVIKVDTRSGEYVSRVK” here?
A: soluble

Q: For “MAVGAPFLYRYSLYNCAYVILNGKVLGIVPKSYIPNYSEFYEKRWFTEGFNIKGLNVDLDFQKEVPFGTDLIFSFKNLKVGFEICEDLWVTIPPSSNLALMGANLICNLSASNELVSKSSYRKSLVQNQSARTMCSYIYSSAGVHESTTDLLFSGHMIIAENGTIIKENNRFKRENDLLTGIVDLFKLDAERIKNISFRNSTFNENNEPRFIPFNLENTEIKNFDREIDKHPFLPKSQYAMEARCEEILNIQAAALAKRLEHTNLKKAVIGISGGLDSTLALLVVVKTFDMLNIPRENIITITMPGFGTTDRTYNNAVTLCKELHCDFREINIVNAALQHFEDIGHDKDIHDVTYENVQARERTQILMDLANKEGGLLIGTGDLSELALGWCTYNGDHMSMYSVNCSIPKTLVRFLVNYFANHEISNDAKEALLDILDTPVSPELLPKDKEGKIAQKTEDIVGPYELHDFFLYHFIKHGSSPERILFLAKEAFKNDYDEETLKKWLDKFIRRFFTQQFKRSALPDGPKVGSISLSPRGDWRMPSDAVYNDFLILEHHHHHH”, which “soluble on expression in E. coli” value is on record?
A: not soluble

Q: For “MAVGSVATLATEPGEDAFRKLFRFYRQSRPGTADLEGVIDFSAAHAARGKGPGAQKVIKSQLNVSSVSEQNAYRAGLQPVSKWQAYGLKGYPGFIFIPNPFLPGYQWHWVKQCLKLYSQKPNVCNLDKHMSKEETQDLWEQSKEFLRYKEATKRRPRSLLEKLRWVTVGYHYNWDSKKYSADHYTPFPSDLGFLSEQVAAACGFEDFRAEAGILNYYRLDSTLGIHVDRSELDHSKPLLSFSFGQSAIFLLGGLQRDEAPTAMFMHSGDIMIMSGFSRLLNHAVPRVLPNPEGEGLPHCLEAPLPAVLPRDSMVEPCSMEDWQVCASYLKTARVNMTVRQVLATDQNFPLEPIEDEKRDISTEGFCHLDDQNSEVKRARINPHSLEHHHHHH”, which “soluble on expression in E. coli” value is on record?
A: soluble

Q: With “MAVIVKYVVERNGEEKMTFTSKAEADAYDKMLDMADELFELLGKSALIEDEAKQEELAMFLAQNKEDVLCALGAKRKPAPATGKKPKAVADSDDDESVDDAA” as the sequence, how does the “soluble on expression in E. coli” value read?
A: not soluble

Q: With “MAVKHASAPKAYINITGLGFAKLTKEGAELKYSDITKTRGLQKIGVETGGELKTAYADGGPIESGNTDGEGKISLQMHAFPKEIRKIVFNEDYDEDGVYEEKQGKQNNYVAVWFRQERRDGTFRTVLLPKVMFTNPKIDGETAEKDWDFSSEEVEGEALFPLVDNKKSVRKYIFDSANMTNHGGDGEKGEEAFLKKILGEEYTGNVTEDNEETLLEHHHHHH” as the sequence, how does the “soluble on expression in E. coli” value read?
A: soluble

Q: With “MAVLGLQGVRGGVGTTTITAALAWSLQMLGENVLVVDACPDNLLRLSFNVDFTHRQGWARAMLDGQDWRDAGLRYTSQLDLLPFGQLSIEEQENPQHWQTRLSDICSGLQQLKASGRYQWILIDLPRDASQITHQLLSLCEHSLAIVNVDANCHIRLHQQALPDGAHILINDFRIGSQVQDDIYQLWLQSQRRLLPMLIHRDEAMAECLAAKQPVGEYRSDALAAEEILTLANWCLLNYSGLKTPVGSAS” as the sequence, how does the “soluble on expression in E. coli” value read?
A: not soluble

Q: For “MAVPEGNSWTYTAASASITAPAQLVGNVGELQGAGSAVIWNVDVPVTGEYRINLTWSSPYSSKVNTLVMDGTALSYAFAEATVPVTYVQTKTLSAGNHSFGVRVGSSDWGYMNVHSLKLELLGGLTIRSPANLEHHHHHH”, which “soluble on expression in E. coli” value is on record?
A: soluble
